# Measurements as given in patent publication US20150297694A1, “CANCER DIAGNOSTIC AND THERAPEUTIC METHOD TARGETING MOLECULES EXPRESSED IN CANCER STEM CELLS” (NIIGATA UNIVERSITY, priority 2012, published 2015).
# B1: DEAD/H (Asp-Glu-Ala-Asp/His) box polypeptide 3, X-linked (protein, listed as Homo sapiens)
# chain: MSHVAVENALGLDQQFAGLDLNSSDNQSGGSTASKGRYIPPHLRNREATKGFYDKDSSGWSSSKDKDAYSSFGSRSDSRGKSSFFSDRGSGSRGRFDDRGRSDYDGIGSRGDRSGFGKFERGGNSRWCDKSDEDDWSKPLPPSERLEQELFSGGNTGINFEKYDDIPVEATGNNCPPHIESFSDVEMGEIIMGNIELTRYTRPTPVQKHAIPIIKEKRDLMACAQTGSGKTAAFLLPILSQIYSDGPGEALRAMKENGRYGRRKQYPISLVLAPTRELAVQIYEEARKFSYRSRVRPCVVYGGADIGQQIRDLERGCHLLVATPGRLVDMMERGKIGLDFCKYLVLDEADRMLDMGFEPQIRRIVEQDTMPPKGVRHTMMFSATFPKEIQMLARDFLDEYIFLAVGRVGSTSENITQKVVWVEESDKRSFLLDLLNATGKDSLTLVFVETKKGADSLEDFLYHEGYACTSIHGDRSQRDREEALHQFRSGKSPILVATAVAARGLDISNVKHVINFDLPSDIEEYVHRIGRTGRVGNLGLATSFFNERNINITKDLLDLLVEAKQEVPSWLENMAYEHHYKGSSRGRSKSSRFSGGFGARDYRQSSGASSSSFSSSRASSSRSGGGGHGSSRGFGGGGYGGFYNSDGYGGNYNSQGVDWWGN
# Experiments:
# [1] = test system: CD62Llow CD4-positive or CD8-positive T cells; experiment: Cytokine ELISA (IFN-γ, IL-17) of CD62Llow lymph node T cells stimulated with antigen-loaded dendritic cells; type: cell-based, mice
# From the text: T cells were stimulated with immobilized anti-CD3 monoclonal antibodies or antigen-pulsed BM-DCs in CM. Supernatants were harvested and assayed for IFN-γ, IL-4, and IL-17 content by a quantitative “sandwich” enzyme immunoassay using a murine IFN-γ, IL-4, and IL-17 ELISA kit (Genzyme), according to the manufacturer's protocol.
# The inventors investigated whether T cells primed with synthesized DDX3X antigen could recognize CD133-positive melanoma cells.
# The CD62L^low CD4-positive or CD8-positive T cells (1×10^5 cells) isolated from the lymph nodes were stimulated with 1×10^4 dendritic cells in 200 μl of complete medium (CM) for 48 hours in a 96-well plate. The dendritic cells used for stimulation were stimulated overnight with the same number of irradiated CD133-positive tumor cells or CD133-negative tumor cells (5,000 cGy), or synthesized DDX3X (5 μg/ml). The dendritic cells were purified with CD11c microbeads prior to co-culture.
# [2] = test system: CD3-positive T cells from peripheral blood; experiment: Detection of DDX3X-responding IFN-γ-producing T cells in peripheral blood (co-culture with DDX3X-pulsed dendritic cells, ELISA); type: cell-based, human; set-up: key to DDX3X-specific T cell: “Yes” means detection of DDX3X-specific T cells in blood; “No” means no detection of DDX3X-specific T cells in blood; settings: for DDX3X-specific T cell: DC pulsed with DDX3X 3.3 μg/ml, co-culture 24 hours, IFN-γ
# Experimental: Peripheral blood (15 ml) was collected after informed consent. A mononulclear cell fraction was collected by density-gradient centrifugation using Lymphoprep(trade name) (Cosmo Bio), and CD14^+ cells were isolated with CD14 microbeads and autoMACS. The CD14^+ cells were cultured with rhGM-CSF (1 ng/ml, a gift from Kirin) and rhIL-4 (10 ng/ml, R&D systems), and differentiated into dendritic cells by day 5. The dendritic cells were cultured overnight in medium containing synthesized DDX3X protein (3.3 μg/ml) or the same concentration of OVA, and CD11c-positive cells purified with CD11c microbeads and autoMACS were used as antigen-presenting cells. In order to remove naive T cells and regulatory T cells from the CD14 fraction cells, CD62L^high cells were removed by using anti-CD62L antibody (1H3)-conjugated Dynabeads. The CD62L^low CD14^− cells were cultured for 48 hours on a BD BioCoat(trade name) T cell activation plate (Becton Dickinson), and cultured for 4 days in medium containing 20 U/ml of rhIL-2 (a gift from Shionogi). FACS confirmed that 95% or more of the cells were CD3-positive T cells, and the CD3-positive T cells were used as responding cells. The responding cells (1×10^5) and antigen-presenting cells (1×10^4) were co-cultured for 24 hours in a 200-μl medium in a round-bottom 96-well plate, and the IFN-γ concentration was measured by ELISA using the supernatant collected after co-culture. Unpulsed dendritic cells, DDX3X-pulsed dendritic cells, and OVA-pulsed dendritic cells were used as the antigen-presenting cells. In Table 3, “Yes” means that IFN-γ production from T cells was confirmed with significant difference only in a co-culture with the DDX3X-pulsed dendritic cells. In the table, “% Treg” and “% Teff” represent the proportions of the regulatory T cells and the effector T cells, respectively, with respect to the total number of CD4^+ T cells as determined by the FACS analysis of the mononulclear cell fraction immediately after isolation from the peripheral blood. CD62L^high CD25^+CD4^+ T cells and CD62L^low CD4^+ T cells were used as regulatory T cells (Treg) and effector T cells (Teff), respectively, in the FACS analysis, as reported in Koyama K, Kagamu H, et al. Reciprocal CD4^+ T-cell balance of effector CD62L^low CD4^+ and CD62L^high CD25^+ CD4^+ regulatory T cells in small cell lung cancer reflects disease stage. Clin Cancer Res. 2008; 14: 6770-9. Detection of DDX3X-responding T cells was not possible in any of the healthy individuals (HV), small cell lung cancer patients with distal metastasis (SCLC-ED), and cured small cell lung cancer patients. However, the experiment found the presence of DDX3X-responding, specific IFN-γ-producing T cells in 5 of 12 small cell lung cancer (SCLC-LD) patients with no distal metastasis.
# [3] = T cells from lymph nodes draining DC pulsed with synthesized DDX3X, stimulated 48 hours with DC loaded with CD133-positive or CD133-negative tumor cells
molecule,measurement,setting,value
B1,IFN-γ and IL-17 secretion by DDX3X-specific CD4-positive T cells,[1]; [3],secreted IFN-γ and IL-17 in a melanoma CSC-specific manner
same,response of DDX3X-specific CD8-positive T cells,[1]; [3],responded to both CD133-negative and CD133-positive melanoma cells
same,cytokine production by melanoma CSC-specific CD4-positive T cells,"[1]; T cells primed with vaccinated CD133-positive melanoma cells, stimulated with DC pulsed with synthesized DDX3X (5 μg/ml)",produced cytokines in a DDX3X-specific manner
same,cytokine production upon DDX3X stimulation compared with stimulation with the melanoma CSC itself,[1]; melanoma CSC-specific CD4-positive T cells,produced even more cytokines
same,DDX3X-specific T cell,[2]; Cured SCLC subjects,No
same,DDX3X-specific T cell,[2]; HV (healthy individuals),No
same,DDX3X-specific T cell,[2]; SCLC-ED subjects,No
same,DDX3X-specific T cell,[2]; SCLC-LD subjects,Yes and No
same,detection of DDX3X-responding T cells,"[2]; healthy individuals (HV), SCLC-ED and cured small cell lung cancer patients",not possible
same,"patients with DDX3X-responding, specific IFN-γ-producing T cells",[2]; small cell lung cancer (SCLC-LD) patients with no distal metastasis,5 of 12
